B1: MAD2L1-binding protein (Homo sapiens), Q15013 (parent)
chain: MAAPEAEVLSSAAVPDLEWYEKSEETHASQIELLETSSTQEPLNASEAFCPRDCMVPVVFPGPVSQEGCCQFTCELLKHIMYQRQQLPLPYEQLKHFYRKPSPQAEEMLKKKPRATTEVSSRKCQQALAELESVLSHLEDFFARTLVPRVLILLGGNALSPKEFYELDLSLLAPYSVDQSLSTAACLRRLFRAIFMADAFSELQAPPLMGTVVMAQGHRNCGEDWFRPKLNYRVPSRGHKLTVTLSCGRPSIRTTAWEDYIWFQAPVTFKGFRE

Variants of: B1
Conditions: with md2l1_human MAD2L1, Q13257
Sequence of md2l1_human MAD2L1, Q13257 (Q13257 whole entry): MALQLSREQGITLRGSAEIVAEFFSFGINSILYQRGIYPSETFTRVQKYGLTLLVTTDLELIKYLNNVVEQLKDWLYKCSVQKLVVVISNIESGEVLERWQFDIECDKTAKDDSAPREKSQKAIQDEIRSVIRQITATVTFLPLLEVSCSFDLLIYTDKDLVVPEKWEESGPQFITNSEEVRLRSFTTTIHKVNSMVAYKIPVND

effect of a mutation on the interaction | Variant
decreasing interaction | F191A
decreasing interaction | Q83A
decreasing interaction | Q83A;F191A
